Assay results from patent US20120134993A1 (ZymoGenetics, published 2012).
Positions count from the first letter of the chain named. Numbers in names are those of the source.

T1: recombinant human FGF6 (human, UniProt P10767 83-208, limits assumed)
T1 sequence (looked up): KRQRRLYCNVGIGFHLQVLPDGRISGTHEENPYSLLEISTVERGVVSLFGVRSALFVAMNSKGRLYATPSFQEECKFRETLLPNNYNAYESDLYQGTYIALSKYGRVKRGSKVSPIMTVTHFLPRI

T2: recombinant human FGF4 (human, UniProt P08620 31-206, limits assumed)
T2 sequence (looked up): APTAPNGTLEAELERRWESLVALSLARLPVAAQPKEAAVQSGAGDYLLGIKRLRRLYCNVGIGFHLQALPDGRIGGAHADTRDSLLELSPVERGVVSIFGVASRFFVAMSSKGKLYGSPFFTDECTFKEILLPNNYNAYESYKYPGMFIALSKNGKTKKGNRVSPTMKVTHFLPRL

T3: recombinant human FGF-8b (human, UniProt P55075-3 23-215)
T3 sequence (looked up): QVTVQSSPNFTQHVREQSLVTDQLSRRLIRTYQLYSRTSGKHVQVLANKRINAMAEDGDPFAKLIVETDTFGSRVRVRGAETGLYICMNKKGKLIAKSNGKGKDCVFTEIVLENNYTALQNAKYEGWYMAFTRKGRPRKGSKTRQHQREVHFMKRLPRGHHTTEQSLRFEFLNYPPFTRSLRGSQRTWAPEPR

T4: recombinant human FGF-17 (human, UniProt O60258 23-216)
T4 sequence (looked up): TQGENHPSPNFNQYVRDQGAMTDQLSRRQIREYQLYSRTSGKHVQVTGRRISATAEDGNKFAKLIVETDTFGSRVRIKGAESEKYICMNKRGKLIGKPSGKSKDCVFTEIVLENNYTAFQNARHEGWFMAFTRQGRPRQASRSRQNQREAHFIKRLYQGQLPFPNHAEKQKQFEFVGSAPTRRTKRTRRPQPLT

B1: FGFR3IIIc(143-375)(S249W) Fc5, truncated FGFR3-Fc S249W (A2258F) (Fc fusion)
chain: DTGVDTGAPYWTRPERMDKKLLAVPAANTVRFRCPAAGNPTPSISWLKNGREFRGEHRIGGIKLRHQQWSLVMESVVPSDRGNYTCVVENKFGSIRQTYTLDVLERWPHRPILQAGLPANQTAVLGSDVEFHCKVYSDAQPHIQWLKHVEVNGSKVGPDGTPYVTVLKTAGANTTDKELEVLSLHNVTFEDAGEYTCLAGNSIGFSHHSAWLVVLPAEEELVEADEAGSVYAGEPKSSDKTHTCPPCPAPEAEGAPSVFLFPPKPKDTLMISRTPEVTCVVVDVSHEDPEVKFNWYVDGVEVHNAKTKPREEQYNSTYRVVSVLTVLHQDWLNGKEYKCKVSNKALPSSIEKTISKAKGQPREPQVYTLPPSRDELTKNQVSLTCLVKGFYPSDIAVEWESNGQPENNYKTTPPVLDSDGSFFLYSKLTVDKSRWQQGNVFSCSVMHEALHNHYTQKSLSLSPGK
notes: also called FGFR3 A2258F; FGFR3A2258F
B2: FGFR3IIIc(23-375) Fc5, full-length FGFR3-Fc (A2257F) (Fc fusion)
chain: ESLGTEQRVVGRAAEVPGPEPGQQEQLVFGSGDAVELSCPPPGGGPMGPTVWVKDGTGLVPSERVLVGPQRLQVLNASHEDSGAYSCRQRLTQRVLCHFSVRVTDAPSSGDDEDGEDEAEDTGVDTGAPYWTRPERMDKKLLAVPAANTVRFRCPAAGNPTPSISWLKNGREFRGEHRIGGIKLRHQQWSLVMESVVPSDRGNYTCVVENKFGSIRQTYTLDVLERSPHRPILQAGLPANQTAVLGSDVEFHCKVYSDAQPHIQWLKHVEVNGSKVGPDGTPYVTVLKTAGANTTDKELEVLSLHNVTFEDAGEYTCLAGNSIGFSHHSAWLVVLPAEEELVEADEAGSVYAGEPKSSDKTHTCPPCPAPEAEGAPSVFLFPPKPKDTLMISRTPEVTCVVVDVSHEDPEVKFNWYVDGVEVHNAKTKPREEQYNSTYRVVSVLTVLHQDWLNGKEYKCKVSNKALPSSIEKTISKAKGQPREPQVYTLPPSRDELTKNQVSLTCLVKGFYPSDIAVEWESNGQPENNYKTTPPVLDSDGSFFLYSKLTVDKSRWQQGNVFSCSVMHEALHNHYTQKSLSLSPGK
notes: also called FGFR3 A2257F; FGFR3IIIc(23_375) C(Fc5)
B3: FGFR3IIIc(23-375)(P250R) Fc5, full-length FGFR3-Fc P250R (A2259F) (Fc fusion)
chain: B2 chain with P228R
notes: also called FGFR3 A2259F; FGFR3IIIc(23_375) (P250R) C(Fc5)
B4: FGFR3IIIc(143-375) Fc5, truncated FGFR3-Fc (A2518F) (Fc fusion)
chain: B1 chain with W107S
notes: This is the form with the second and third Ig-like domains; also called FGFR3 A2518F; FGFR3IIIc(143_375) C(Fc5)
B5: FGFR3IIIc(143-375)(P250R) Fc5, truncated FGFR3-Fc P250R (A2519F) (Fc fusion)
chain: B1 chain with W107S, P108R
notes: also called FGFR3 A2519F; FGFR3IIIc(143_375) (P250R) C(Fc5)
B6: FGFR2alphaIIIc(145-377)(S252W) Fc5, truncated FGFR2-Fc S252W (A2560F) (Fc fusion)
chain: SENSNNKRAPYWTNTEKMEKRLHAVPAANTVKFRCPAGGNPMPTMRWLKNGKEFKQEHRIGGYKVRNQHWSLIMESVVPSDKGNYTCVVENEYGSINHTYHLDVVERWPHRPILQAGLPANASTVVGGDVEFVCKVYSDAQPHIQWIKHVEKNGSKYGPDGLPYLKVLKAAGVNTTDKEIEVLYIRNVTFEDAGEYTCLAGNSIGISFHSAWLTVLPAPGREKEITASPDYLEEPKSSDKTHTCPPCPAPEAEGAPSVFLFPPKPKDTLMISRTPEVTCVVVDVSHEDPEVKFNWYVDGVEVHNAKTKPREEQYNSTYRVVSVLTVLHQDWLNGKEYKCKVSNKALPSSIEKTISKAKGQPREPQVYTLPPSRDELTKNQVSLTCLVKGFYPSDIAVEWESNGQPENNYKTTPPVLDSDGSFFLYSKLTVDKSRWQQGNVFSCSVMHEALHNHYTQKSLSLSPGK
notes: also called FGFR2 A2560F; construct #1949

Each binder was assayed against T1, recombinant human FGF6 (assay: cell-based or functional assay).

Binder | IC50, FGF-stimulated HUVEC proliferation (3H-thymidine) [nM]
B1 | 0.78

The binders below were run against recombinant human FGF2 (human, UniProt P09038 143-288, limits assumed) (assay: cell-based or functional assay).
Chain of recombinant human FGF2 (P09038 143-288 limits assumed): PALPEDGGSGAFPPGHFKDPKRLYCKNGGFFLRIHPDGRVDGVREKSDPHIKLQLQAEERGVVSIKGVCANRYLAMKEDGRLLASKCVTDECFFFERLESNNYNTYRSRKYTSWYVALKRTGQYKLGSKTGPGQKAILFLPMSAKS

Binder | IC50, FGF-stimulated HUVEC proliferation (3H-thymidine) [nM]
B1 | 0.67

These binders were tested against recombinant human FGF1 (human, UniProt P05230 16-155) (assay: cell-based or functional assay).
Chain of recombinant human FGF1 (P05230 16-155 limits assumed): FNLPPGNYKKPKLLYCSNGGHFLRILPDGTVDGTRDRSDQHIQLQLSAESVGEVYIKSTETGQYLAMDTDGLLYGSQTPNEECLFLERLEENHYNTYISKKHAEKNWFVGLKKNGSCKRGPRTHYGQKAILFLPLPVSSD

Binder | IC50, FGF-stimulated HUVEC proliferation (3H-thymidine) [nM]
B1 | 0.55

Each binder was assayed against T2, recombinant human FGF4 (assay: cell-based or functional assay).

Binder | IC50, FGF-stimulated HUVEC proliferation (3H-thymidine) [nM]
B1 | 0.68

What follows are binders tested against T1, recombinant human FGF6 (assay: SPR (Biacore T100), FGFR-Fc captured on protein A, FGF6 analyte with heparin, bivalent analyte model (KD1)).
Experimental: (§1) Materials and Methods: Binding kinetics and affinity studies were performed on a Biacore T100™ system (GE Healthcare, Piscataway, N.J.). Methods for the Biacore T100™ were programmed using Biacore T100™ Control Software, v 2.0. Since each of the FGF receptor molecules contained a human Fc domain, biotinylated protein-A (Thermo Fisher Scientific Inc, Rockford, Ill.) was used as a capture reagent for these studies. Biotinylated protein-A was diluted to concentration of 50 μg/mL in HBS-EP buffer (10 mM HEPES, 150 mM NaCl, 3 mM EDTA, 0.05% Surfactant P20; GE Healthcare, Piscataway, N.J.), and then captured to all four flow cells of a SA (streptavidin) sensor chip. A density of approximately 1100 RU was obtained for each flow cell. Each FGF receptor molecule was subsequently captured via protein-A onto a separate flow cell of the SA chip at an approximate density of 150-250 RU. The Biacore instrument measures the mass of protein bound to the sensor chip surface, and thus, capture of the receptor was verified for each cycle.
(§2) For kinetic binding studies, serial 1:5 dilutions of FGF ligands were prepared from 200 nM-0.06 nM. These samples were injected over the surface and allowed to specifically bind to the FGF receptor captured on the sensor chip. Injections of each ligand concentration were performed with an association time of 7 minutes and dissociation time of 15 minutes. Kinetic binding studies were performed with a flow rate of 50 μL/min. All binding experiments were performed at 25° C. in HBS-P buffer (10 mM HEPES, 150 mM NaCl, 0.05% Surfactant P20, pH 7.4; GE Healthcare, Piscataway, N.J.), containing 50 μg/mL heparin (Calbiochem, La Jolla, Calif.).
(§3) Between cycles, the flow cell was washed with 20 mM hydrochloric acid to regenerate the surface. This wash step removed both the captured FGF receptor and any bound FGF ligand from the protein-A surface, and allowed for the subsequent binding of the next test sample. Data was compiled using the Biacore T100™ Evaluation software (version 2.0). Data was processed by subtracting reference flow cell and blank injections. Baseline stability was assessed to ensure that the regeneration step provided a consistent binding surface throughout the sequence of injections. Duplicate injection curves were checked for reproducibility. Binding curves were globally fit to the bivalent analyte model.

Binder | Kd [nM]
B2 | 200
B3 | 20
B4 | 300
B5 | 20
B1 | 2

What follows are binders tested against T1, recombinant human FGF6 (assay: SPR (Biacore T100), FGFR-Fc captured on protein A, FGF6 analyte with heparin, bivalent analyte model (KA1)).
Experimental: as §1, §2, §3

Binder | Ka [M⁻¹]
B2 | 7e+06
B3 | 6e+07
B4 | 3e+06
B5 | 5e+07
B1 | 5e+08

The binders below were run against T3, recombinant human FGF-8b (assay: direct binding ELISA, FGF-8b coated, FGFR-Fc titrated with heparin, anti-human Fc-HRP).
Experimental: (§4) To determine the binding capability of FGFR-Fc to their respective ligands, an ELISA was run. Recombinant human FGF-8b or FGF-17 (R&D Systems) was plated at 100 nM on a Nunc Maxisorp 96-well plate for 1 h at room temperature with shaking. The plates were blocked with BLOTTO (Thermo Fisher Scientific, Rockford, Ill.) for 1 h at room temperature, then washed 5 times with ELISA C buffer (137 mM NaCl, 2.7 mM KCl, 7.2 mM Na₂HPO₄, 1.5 mM KH₂PO₄, 0.05% (v/w) polysorbate 20, pH 7.2). FGFR-Fcs were diluted to 100 nM with PBS/0.1×BLOTTO/10 ug/ml porcine heparin (Sigma, St. Louis, Mo.) and then 1:2 serial dilutions were made, ending at 0.10 nM. 100 μL of FGFR-Fcs were plated and incubated at 4° C. overnight. The following day, the plates were washed 5 times with ELISA C and then incubated with 2.5 μg/mL horseradish peroxidase-conjugated anti-human Fc antibody (Jackson ImmunoResearch Laboratories, West Grove, Pa.) for 1 h at room temperature with shaking. After 5 washes with ELISA C, 100 μL of OPD in citrate buffer (5 mg of o-phenylenediamine in 63 mM sodium citrate, 37 mM citric acid, pH 5.0, 0.03% H₂O₂) was added for detection. After 2-5 minutes, the reaction was stopped with 1 N H₂SO₄. The plates were read at 490 nm using SoftMaxPro software.

Binder | IC50 [nM]
B2 | 41.9
B3 | 52.6
B4 | 16.4
B5 | 9.7
B1 | 10

Each binder was assayed against T4, recombinant human FGF-17 (assay: direct binding ELISA, FGF-17 coated, FGFR-Fc titrated with heparin, anti-human Fc-HRP).
Experimental: as §4

Binder | IC50 [nM]
B6 | 223
B2 | 20.1
B3 | 45.3
B4 | 3.79
B5 | 37.6
B1 | 1.31

These binders were tested against human FGF-9 (human, UniProt P31371 4-208) (assay: cell-based or functional assay).

Binder | Proliferation IC50, FGF-9-stimulated HCO osteoblasts (3H-thymidine) [nM]
B2 | 1.19
B3 | 1.14
B4 | 0.77
B5 | 0.99
B1 | 0.75

The binders below were run against T3, recombinant human FGF-8b (assay: cell-based or functional assay).

Binder | Proliferation IC50, FGF8b-stimulated LNCap cells (3H-thymidine) [nM]
B5 | 0.01
B1 | 0.02

What follows are binders tested against T1, recombinant human FGF6 (assay: SPR (Biacore T100), FGFR-Fc captured on protein A, FGF6 analyte with heparin, bivalent analyte model (ka1)).
Experimental: as §1, §2, §3

Binder | kon [M⁻¹ s⁻¹]
B2 | 400000
B3 | 300000
B4 | 200000
B5 | 200000
B1 | 300000

Each binder was assayed against T1, recombinant human FGF6 (assay: SPR (Biacore T100), FGFR-Fc captured on protein A, FGF6 analyte with heparin, bivalent analyte model (kd1)).
Experimental: as §1, §2, §3

Binder | koff [s⁻¹]
B2 | 0.06
B3 | 0.005
B4 | 0.06
B5 | 0.004
B1 | 0.0006
